Substrate: Nc1nc2c(ncn2[C@H]2C[C@H](O)[C@@H](COP(=O)(O)OP(=O)(O)OP(=O)(O)O)O2)c(=O)[nH]1
Test: steady-state single-nucleotide incorporation, FAM-primer gel assay, Michaelis-Menten fit
Assay type: biochemical, Saccharolobus islandicus
Conditions: pH 8.0 Tris-HCl, 40 mM KCl, 10 mM MgCl2, 11 nM enzyme, 100 nM primer-template (undamaged S0; also AP-site substrates D1-D8, L1-L8), apparent Km

B1: Dpo2 (SisDpo2) (Saccharolobus islandicus REY15A) (protein)
chain: MREMEEYVLDAYPVKGGVKLFLSNFKEKSIRTTFPVYAITDNPDVVLQHPEVKYYEEEKWKTLNGKEAKVYRFEVESFDAYYYMRKRLNVVNETPTVLSQTLYRLGIKPFRRLNSSDDEFPKVTIAKVVPLDWYGESLKGKVFEVKINNEVRRFYEKPEVEADITECLGEACNYVKSNVKIRIEKKRSPVSAKGLIEWSLISLTPLHEIAYATIGKVLTTNEAWVAFKRRIIIPKIVPRVEKLRRLENIMMADKGGLILFPQPGCYDNVYQVDFSSMYPSLIVKYNISAETVDACDDIKTELHSICLREKGIIPEALEWLIKRKSELKRIDKERAEAIKWILVASFGYLGYRNSLFGKIEAYEMVTYLARKTLRRTMEIAEEMGLKVLHSIIDSLVVKGDNIDKFIERVEKETGLRLDHKRYNWIIFTTTRNDTPYPTRYIANMNGEIIAKGLIRENMPNIVKSFLKDVLRGLSLTRTCSDVKKVRIRDLYEKYRKRTINGEPIDYVIWIKGVPYVRGIKGFYDARLGYMGRDVNYYINYLRRVYDNVEEVISRC
notes: recombinant, expressed in native host S. islandicus E233S; purified as in Feng et al. 2021
Km: 118 ± 22.7 µM | kcat: 0.525 ± 0.125 s⁻¹
